How the values were obtained:
Syncrip NeR1R2R3 [1] = target: T1, Syncrip NeR1R2R3 (Homo sapiens, UniProt O60506 16-428); assay: NMR; only NURR resonances shift; BLI: 5 mM Tris-HCl pH 7.4, 50 mM NaCl, 1 mM TCEP, 0.5 mg/mL BSA, 30 C; NMR: 5 mM Tris-HCl pH 7.4, 50 mM NaCl, 0.5 mM TCEP; conditions: protein: recombinant; tags: His6-SUMO or His, removed by HRV 3C
T1 sequence: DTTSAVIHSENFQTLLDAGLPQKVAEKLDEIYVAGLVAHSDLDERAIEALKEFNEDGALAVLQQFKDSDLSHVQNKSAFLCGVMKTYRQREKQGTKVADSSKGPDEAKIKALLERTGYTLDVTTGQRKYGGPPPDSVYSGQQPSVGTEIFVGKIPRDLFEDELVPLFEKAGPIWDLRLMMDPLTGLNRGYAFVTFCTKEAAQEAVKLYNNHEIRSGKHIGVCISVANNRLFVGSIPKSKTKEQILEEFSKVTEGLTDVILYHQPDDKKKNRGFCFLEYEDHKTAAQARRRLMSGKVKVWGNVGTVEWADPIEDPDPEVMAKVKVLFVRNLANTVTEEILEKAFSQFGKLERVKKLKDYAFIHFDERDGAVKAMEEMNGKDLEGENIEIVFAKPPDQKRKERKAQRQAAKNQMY

Syncrip NeR1 R60A G97L = target: T2, Syncrip NeR1 R60A G97L (Homo sapiens, UniProt O60506 16-242, R60A;G97L); assay: NMR; 50 uM protein, 1:1 and 1:2; legend: binding eliminated (text: impaired); BLI: 5 mM Tris-HCl pH 7.4, 50 mM NaCl, 1 mM TCEP, 0.5 mg/mL BSA, 30 C; NMR: 5 mM Tris-HCl pH 7.4, 50 mM NaCl, 0.5 mM TCEP; conditions: protein: recombinant; tags: His6-SUMO or His, removed by HRV 3C
T2 sequence: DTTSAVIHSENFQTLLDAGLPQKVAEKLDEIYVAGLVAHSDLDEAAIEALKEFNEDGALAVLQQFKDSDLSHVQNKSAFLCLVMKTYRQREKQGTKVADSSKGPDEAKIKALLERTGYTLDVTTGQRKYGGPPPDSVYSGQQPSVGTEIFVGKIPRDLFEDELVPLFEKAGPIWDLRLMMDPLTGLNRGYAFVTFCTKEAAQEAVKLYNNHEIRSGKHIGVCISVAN

Syncrip NeR1 = target: T3, Syncrip NeR1 (Homo sapiens, UniProt O60506 16-242); assay: NMR; 50 uM protein, 1:1 and 1:2; BLI: 5 mM Tris-HCl pH 7.4, 50 mM NaCl, 1 mM TCEP, 0.5 mg/mL BSA, 30 C; NMR: 5 mM Tris-HCl pH 7.4, 50 mM NaCl, 0.5 mM TCEP; conditions: protein: recombinant; tags: His6-SUMO or His, removed by HRV 3C
T3 sequence: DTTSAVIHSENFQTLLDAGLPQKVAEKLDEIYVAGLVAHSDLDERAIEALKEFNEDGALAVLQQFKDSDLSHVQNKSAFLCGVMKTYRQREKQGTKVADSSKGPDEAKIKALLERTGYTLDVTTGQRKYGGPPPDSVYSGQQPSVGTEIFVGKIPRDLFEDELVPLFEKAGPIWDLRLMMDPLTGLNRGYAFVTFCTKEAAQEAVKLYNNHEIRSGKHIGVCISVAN

Syncrip NURR domain (N) [2] = target: T4, Syncrip NURR domain (N) (Homo sapiens, UniProt O60506 16-109); assay: NMR; BLI: 5 mM Tris-HCl pH 7.4, 50 mM NaCl, 1 mM TCEP, 0.5 mg/mL BSA, 30 C; NMR: 5 mM Tris-HCl pH 7.4, 50 mM NaCl, 0.5 mM TCEP; conditions: protein: recombinant; tags: His6-SUMO or His, removed by HRV 3C
T4 sequence: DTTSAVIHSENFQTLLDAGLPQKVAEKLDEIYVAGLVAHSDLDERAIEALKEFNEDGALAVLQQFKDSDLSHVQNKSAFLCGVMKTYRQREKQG

Syncrip NURR domain (N) [3] = target: T4, Syncrip NURR domain (N); assay: BLI; BLI: 5 mM Tris-HCl pH 7.4, 50 mM NaCl, 1 mM TCEP, 0.5 mg/mL BSA, 30 C; NMR: 5 mM Tris-HCl pH 7.4, 50 mM NaCl, 0.5 mM TCEP; conditions: protein: recombinant; tags: His6-SUMO or His, removed by HRV 3C; label: 5'-biotin
Syncrip NeR1R2R3 [4] = target: T1, Syncrip NeR1R2R3; assay: as above; conditions: protein: recombinant; tags: His6-SUMO or His, removed by HRV 3C; label: 5'-biotin (BLI)
Syncrip NeR1R2R3 [5] = target: T1, Syncrip NeR1R2R3; assay: as above; conditions: protein: recombinant; tags: His6-SUMO or His, removed by HRV 3C; label: 5'-biotin

AGGCU (ssRNA) [hEXO-motif RNA]: binds (Syncrip NeR1R2R3 [1]); no binding (Syncrip NeR1 R60A G97L); binds (Syncrip NeR1). AGGCU (ssRNA) [hEXO-motif RNA]: binds (Syncrip NURR domain (N) [2]).

In the case of GUAGACCAGGCUGG (ssRNA) [14mer miR-3470], the Kd (Syncrip NURR domain (N) [3]) is reported as 29 ± 2 µM.

UCACUUUGUAGACCAGGCUGG (ssRNA) [miR-3470 full-length] gave a Kd (Syncrip NeR1R2R3 [4]) of 0.002 ± 0.0002 µM.

In the case of UCACUUUGUAGACCAAGUGUU (ssRNA) [chimera miR-3470 (delta-hEXO mutant)], the “fold loss of affinity vs miR-3470 wild type” value (Syncrip NeR1R2R3 [5]) is reported as ~6 fold lower affinity than miR-3470 wild type.

From publication PMC5827114, “A cryptic RNA-binding domain mediates Syncrip recognition and exosomal partitioning of miRNA targets”
